Data published in US20060252053A1 (Dana-Farber, published 2006).
Values belong to the molecule of their own block, whether it stands above or below them.

How the values were obtained:
[1] = biological target: endogenous Apaf-1 polypeptide of 293T cells (human) (UniProt O14727); test: cell-based or functional assay
[2] = biological target: T1, endogenous procaspase-3 (LNZ308, U87MG and 293T cells) (human, UniProt P42574 1-277); test: anti-L12-2 immunoprecipitation from LNZ308, U87MG and 293T lysates, western blot
T1 sequence (looked up): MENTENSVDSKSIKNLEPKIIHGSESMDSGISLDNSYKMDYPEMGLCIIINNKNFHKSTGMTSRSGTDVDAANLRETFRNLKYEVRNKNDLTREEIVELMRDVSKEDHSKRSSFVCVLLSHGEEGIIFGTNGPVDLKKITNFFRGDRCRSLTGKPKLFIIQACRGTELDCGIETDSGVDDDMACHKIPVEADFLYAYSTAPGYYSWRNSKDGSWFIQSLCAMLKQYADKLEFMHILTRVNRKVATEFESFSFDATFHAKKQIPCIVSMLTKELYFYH
Procedure: (§1) To define further the molecular actions of Bcl2L12 polypeptides, the physical interactions with key post-mitochondrial apoptosis signaling molecules were assessed. Anti-L12-2 immunoprecipitates from lysates of LNZ308, U87MG, and 293T cells were subjected to western blot analysis for procaspases 7 and 3 and cytochrome c. Briefly, cells were lysed in IP buffer. Cleared supernatants were incubated with prebleed serum (8 μl) coupled to Protein A-sepharose 4B beads (Sigma) for 1 hour and subsequently with anti-L12-2 antiserum (8 μl) for 1 to 2 hours. […] The blots were washed with PBS/Tween and developed with goat anti-rabbit IgG (1:10,000) or with goat anti-mouse antibodies (1:10,000) (Pierce) in 5% milk PBS/Tween. After washing with PBS/Tween, the blots were developed with the Lumigen PS3 kit (Amersham) following the manufacturer's protocol. 1/40 of the lysate used for the immunoprecipitation was loaded to quantify the amount of co-immunoprecipitated caspase-7. […] Anti-L12-2 immunoprecipitates from control- and siRNA#5-treated U87MG cells were also subjected to western blot analysis for caspase-7.

[3] = biological target: T2, cytochrome c (endogenous, LNZ308, U87MG and 293T cells) (human, UniProt P99999 2-105); test: as above
T2 construct: also called apoptosome component cytochrome c
T2 sequence (P99999 2-105 limits assumed): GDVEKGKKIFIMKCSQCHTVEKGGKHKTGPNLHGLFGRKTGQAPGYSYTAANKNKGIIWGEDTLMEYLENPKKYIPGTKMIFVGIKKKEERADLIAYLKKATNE
Procedure: as §1

endogenous Apaf-1 polypeptide of 293T cells (human), sequence (O14727 whole entry): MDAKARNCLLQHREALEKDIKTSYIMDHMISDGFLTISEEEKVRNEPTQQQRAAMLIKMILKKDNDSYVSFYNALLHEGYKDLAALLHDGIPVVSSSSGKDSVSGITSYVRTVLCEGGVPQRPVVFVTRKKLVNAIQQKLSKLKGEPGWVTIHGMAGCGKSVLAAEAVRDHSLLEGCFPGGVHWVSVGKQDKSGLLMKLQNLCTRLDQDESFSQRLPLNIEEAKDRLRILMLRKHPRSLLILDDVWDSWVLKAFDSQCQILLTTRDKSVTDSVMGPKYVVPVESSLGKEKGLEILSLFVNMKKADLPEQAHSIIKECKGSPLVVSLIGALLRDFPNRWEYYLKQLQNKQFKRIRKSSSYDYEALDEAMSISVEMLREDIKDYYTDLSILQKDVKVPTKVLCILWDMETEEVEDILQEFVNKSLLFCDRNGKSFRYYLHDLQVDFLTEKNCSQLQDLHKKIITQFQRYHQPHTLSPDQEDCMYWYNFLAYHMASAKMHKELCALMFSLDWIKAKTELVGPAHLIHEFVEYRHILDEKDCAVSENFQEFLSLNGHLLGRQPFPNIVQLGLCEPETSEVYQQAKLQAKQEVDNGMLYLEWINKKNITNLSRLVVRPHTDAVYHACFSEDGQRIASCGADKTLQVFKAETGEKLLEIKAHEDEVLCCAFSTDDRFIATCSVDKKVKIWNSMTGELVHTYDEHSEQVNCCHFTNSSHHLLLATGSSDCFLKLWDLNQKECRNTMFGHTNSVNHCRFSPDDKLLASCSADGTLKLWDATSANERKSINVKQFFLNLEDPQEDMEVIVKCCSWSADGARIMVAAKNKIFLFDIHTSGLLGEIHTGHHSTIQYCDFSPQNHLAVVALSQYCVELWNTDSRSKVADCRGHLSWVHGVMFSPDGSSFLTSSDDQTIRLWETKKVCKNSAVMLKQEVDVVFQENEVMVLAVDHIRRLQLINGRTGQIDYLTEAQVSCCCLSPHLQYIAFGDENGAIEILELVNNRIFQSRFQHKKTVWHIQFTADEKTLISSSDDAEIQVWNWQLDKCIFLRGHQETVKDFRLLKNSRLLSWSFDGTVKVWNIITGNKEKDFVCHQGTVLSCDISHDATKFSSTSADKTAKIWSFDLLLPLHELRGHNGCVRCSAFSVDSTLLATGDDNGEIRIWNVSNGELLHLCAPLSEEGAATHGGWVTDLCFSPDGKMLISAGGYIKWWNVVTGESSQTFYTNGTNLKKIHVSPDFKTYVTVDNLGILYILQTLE

caspase-9 activity in 293T cells (vector only: about 420 RFUs) [1]: 160 RFUs
Molecule: Bcl2L12-ΔBH2ΔP-rΔIHD polypeptide, V5 tagged (human amino acid sequence 1-167)

binding result [2]: no binding | binding result [3]: no binding
B1: endogenous Bcl2L12 polypeptide of human cell lines (LNZ308, LN443, LN382, U87MG, 293T) (other)
chain: MGRPAGLFPPLCPFLGFRPEACWERHMQIERAPSVPPFLRWAGYRPGPVRRRGKVELIKFVRVQWRRPQVEWRRRRWGPGPGASMAGSEELGLREDTLRVLAAFLRRGEAAGSPVPTPPRSPAQEEPTDFLSRLRRCLPCSLGRGAAPSESPRPCSLPIRPCYGLEPGPATPDFYALVAQRLEQLVQEQLKSPPSPELQGPPSTEKEAILRRLVALLEEEAEVINQKLASDPALRSKLVRLSSDSFARLVELFCSRDDSSRPSRACPGPPPPSPEPLARLALAMELSRRVAGLGGTLAGLSVEHVHSFTPWIQAHGGWEGILAVSPVDLNLPLD
notes: Endogenous protein in lysates or fixed cells of human cell lines
